According to PMC2859121 (Cell host & microbe, 2010):
Positions count from the first letter of the chain named. * marks the point of attachment. Cam = NC(=O)C*

B1: tetherin(80–147), reduced with DTT and cysteines blocked with iodoacetamide (domain or fragment, human, UniProt Q10589 80-147, looked up)
chain: GFQDVEAQAATC(Cam)NHTVMALMASLDAEKAQGQKKVEELEGEITTLNHKLQDASAEVERLRRENQVLSVR
B2: tetherin(80–147) (domain or fragment, human, UniProt Q10589 80-147, looked up)
chain: GFQDVEAQAATCNHTVMALMASLDAEKAQGQKKVEELEGEITTLNHKLQDASAEVERLRRENQVLSVR
B3: tetherin(47–159) (domain or fragment, human, UniProt Q10589 47-159, looked up)
chain: KANSEACRDGLRAVMECRNVTHLLQQELTEAQKGFQDVEAQAATCNHTVMALMASLDAEKAQGQKKVEELEGEITTLNHKLQDASAEVERLRRENQVLSVRIADKKYYPSSQD
B4: tetherin(47–159)_set2 (domain or fragment, human, UniProt Q10589 47-159, looked up)
chain: B3 chain with L81K, A84Y, V88E, L91E
B5: tetherin(47–159) set 3 mutant (domain or fragment, human, UniProt Q10589 47-159, looked up)
chain: B3 chain with K1A, N3G, E5A, R8S, D9A, R12S
B6: tetherin(47–159), reduced with DTT and cysteines blocked with iodoacetamide (domain or fragment, human, UniProt Q10589 47-159, looked up)
chain: B3 chain
modifications: cysteines blocked with iodoacetamide after reduction with DTT

Key:
cross-linking = target: the molecule itself; experiment: cross-linking
[1] = target: the molecule itself; experiment: SDS-PAGE under reducing and non-reducing conditions

Protein	stoichiometry N (cross-linking)	stoichiometry N [1]	also measured
B1	2	–	–
B2	–	2	–
B3	–	2	–
B4	–	–	binding result [1]: binds
B5	–	2	–
B6	2	–	–
